Reference: publication PMC5502268, “DNA Methylation Influences Chlorogenic Acid Biosynthesis in Lonicera japonica by Mediating LjbZIP8 to Regulate Phenylalanine Ammonia-Lyase 2 Expression”

Columns and labels:
LjbZIP8 = target: T1, LjbZIP8 (Lonicera japonica, UniProt A0A4Y1JSE6 1-144); assay: EMSA; inhibited by unlabelled probe (200x in legend; 4 pmol vs 40 fmol in Methods); 40 fmol biotin probe, 15 fmol protein, 0 or 4 pmol competitor, room temperature 20 min, Pierce LightShift kit 20148; binding buffer, salt and pH not stated; settings: protein: recombinant; tags: GST (pGEX-4T-1); chain copies: 2; blunt
T1 sequence: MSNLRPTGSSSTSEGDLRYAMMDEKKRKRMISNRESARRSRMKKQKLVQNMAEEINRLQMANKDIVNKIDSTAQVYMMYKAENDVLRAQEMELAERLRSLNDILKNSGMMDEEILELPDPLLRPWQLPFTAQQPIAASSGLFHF

LjbZIP10 = target: T2, LjbZIP10 (Lonicera japonica, UniProt A0A4Y1JSG2 1-361); assay: EMSA; 40 fmol biotin probe, 15 fmol protein, 0 or 4 pmol competitor, room temperature 20 min, Pierce LightShift kit 20148; binding buffer, salt and pH not stated; settings: protein: recombinant; tags: GST (pGEX-4T-1); chain copies: 2; blunt
T2 sequence: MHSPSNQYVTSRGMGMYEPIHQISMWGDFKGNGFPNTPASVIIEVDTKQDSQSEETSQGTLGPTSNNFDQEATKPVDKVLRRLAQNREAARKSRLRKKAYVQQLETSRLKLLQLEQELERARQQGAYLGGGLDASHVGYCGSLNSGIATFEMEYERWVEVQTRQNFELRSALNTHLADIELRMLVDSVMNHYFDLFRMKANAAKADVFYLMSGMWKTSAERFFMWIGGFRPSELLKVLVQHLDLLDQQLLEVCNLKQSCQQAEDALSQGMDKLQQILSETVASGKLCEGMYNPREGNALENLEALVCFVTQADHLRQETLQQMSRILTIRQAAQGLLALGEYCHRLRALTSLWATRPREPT

B1: LjPAL2 G-box probe (dsDNA)
DNA 1: CTCTCCTGTCCACGTGTCATCAAC
DNA 2: GTTGATGACACGTGGACAGGAGAG
LjbZIP8
  binding result: binds
LjbZIP10
  binding result: no binding
